Experiments:
[1] = target: FVIIIa (activated factor VIII) (UniProt P00451); assay: apparent Kd; 0.1 nM FVIIIa titrated with 0-5 nM FIXa, 100 µM PSPC vesicles, 5 mM CaCl2; complex read by the initial rate of FXa generation, quadratic fit
[2] = target: FVIIIa (activated factor VIII) (UniProt P00451)
[3] = target: FVIIIa (activated factor VIII) (UniProt P00451); assay: apparent Kd from FXa generation, as FIG. 1, in the absence of hirudin
[4] = target: FVIIIa (activated factor VIII) (UniProt P00451); assay: apparent Kd from FXa generation, as FIG. 1, in the presence of 100 nM hirudin

Chain of UniProt P00451 (P00451 whole entry, looked up): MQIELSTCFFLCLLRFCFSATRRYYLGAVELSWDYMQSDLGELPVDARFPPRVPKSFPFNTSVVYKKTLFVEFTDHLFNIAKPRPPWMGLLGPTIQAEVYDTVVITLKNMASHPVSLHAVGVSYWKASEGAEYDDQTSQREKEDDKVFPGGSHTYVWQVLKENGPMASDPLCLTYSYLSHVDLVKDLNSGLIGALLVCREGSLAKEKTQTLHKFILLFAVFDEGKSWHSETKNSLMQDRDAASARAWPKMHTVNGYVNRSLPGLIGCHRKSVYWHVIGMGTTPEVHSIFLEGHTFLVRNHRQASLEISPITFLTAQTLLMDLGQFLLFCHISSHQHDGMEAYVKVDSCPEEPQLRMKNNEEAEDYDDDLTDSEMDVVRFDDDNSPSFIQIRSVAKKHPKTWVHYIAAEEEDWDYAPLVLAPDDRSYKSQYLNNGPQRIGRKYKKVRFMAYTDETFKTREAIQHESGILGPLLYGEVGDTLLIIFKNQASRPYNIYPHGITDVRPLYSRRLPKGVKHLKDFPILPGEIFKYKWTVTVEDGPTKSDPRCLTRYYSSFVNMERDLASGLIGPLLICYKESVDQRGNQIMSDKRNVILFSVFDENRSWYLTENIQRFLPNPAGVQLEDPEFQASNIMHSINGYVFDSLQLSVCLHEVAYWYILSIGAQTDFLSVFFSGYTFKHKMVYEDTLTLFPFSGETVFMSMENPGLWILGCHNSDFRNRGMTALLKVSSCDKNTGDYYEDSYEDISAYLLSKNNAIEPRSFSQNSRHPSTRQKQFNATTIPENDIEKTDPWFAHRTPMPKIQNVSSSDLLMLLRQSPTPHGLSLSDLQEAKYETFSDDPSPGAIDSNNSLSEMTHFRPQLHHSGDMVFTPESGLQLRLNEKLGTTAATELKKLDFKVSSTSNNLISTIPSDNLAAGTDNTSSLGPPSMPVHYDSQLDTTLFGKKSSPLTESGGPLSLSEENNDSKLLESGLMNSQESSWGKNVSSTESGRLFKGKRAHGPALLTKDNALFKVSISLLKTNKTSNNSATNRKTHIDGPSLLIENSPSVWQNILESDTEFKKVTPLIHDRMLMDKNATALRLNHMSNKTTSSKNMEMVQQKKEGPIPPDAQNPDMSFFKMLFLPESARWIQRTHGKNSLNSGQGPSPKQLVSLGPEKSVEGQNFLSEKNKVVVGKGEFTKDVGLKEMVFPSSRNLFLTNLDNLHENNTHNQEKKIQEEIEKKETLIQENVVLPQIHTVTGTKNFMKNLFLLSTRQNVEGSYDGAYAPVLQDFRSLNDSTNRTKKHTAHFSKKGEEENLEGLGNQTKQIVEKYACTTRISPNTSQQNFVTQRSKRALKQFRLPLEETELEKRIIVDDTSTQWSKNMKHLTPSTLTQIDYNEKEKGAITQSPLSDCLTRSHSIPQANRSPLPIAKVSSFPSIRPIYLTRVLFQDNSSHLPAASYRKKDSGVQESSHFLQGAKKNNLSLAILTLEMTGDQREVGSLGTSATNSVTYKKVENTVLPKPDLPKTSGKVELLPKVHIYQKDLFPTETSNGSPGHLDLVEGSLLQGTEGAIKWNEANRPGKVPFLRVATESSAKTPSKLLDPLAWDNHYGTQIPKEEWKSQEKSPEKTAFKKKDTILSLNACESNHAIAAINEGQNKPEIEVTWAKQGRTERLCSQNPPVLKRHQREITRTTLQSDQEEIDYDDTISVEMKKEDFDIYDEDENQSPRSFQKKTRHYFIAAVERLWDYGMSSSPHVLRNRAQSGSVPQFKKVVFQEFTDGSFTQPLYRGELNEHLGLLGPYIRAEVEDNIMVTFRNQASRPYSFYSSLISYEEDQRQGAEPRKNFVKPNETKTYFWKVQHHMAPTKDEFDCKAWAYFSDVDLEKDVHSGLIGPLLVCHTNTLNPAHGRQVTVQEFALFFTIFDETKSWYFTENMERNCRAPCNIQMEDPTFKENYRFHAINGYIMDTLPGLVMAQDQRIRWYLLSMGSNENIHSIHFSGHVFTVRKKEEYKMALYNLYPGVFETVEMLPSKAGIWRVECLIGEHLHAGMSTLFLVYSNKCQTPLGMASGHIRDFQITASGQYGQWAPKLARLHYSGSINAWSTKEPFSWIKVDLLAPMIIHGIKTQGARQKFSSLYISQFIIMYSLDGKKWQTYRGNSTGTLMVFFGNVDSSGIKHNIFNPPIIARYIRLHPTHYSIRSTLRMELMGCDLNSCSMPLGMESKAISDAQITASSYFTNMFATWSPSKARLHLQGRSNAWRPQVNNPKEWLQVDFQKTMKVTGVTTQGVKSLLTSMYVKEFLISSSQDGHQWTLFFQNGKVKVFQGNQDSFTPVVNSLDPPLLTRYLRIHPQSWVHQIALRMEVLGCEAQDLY

Row | Substance | Bmax, in the absence of hirudin [2] [nM FXa/min] | Bmax, in the presence of 100 nM hirudin [2] [nM FXa/min] | maximum rate of FX cleavage (Bmax of FIG. 1) [2] | further results
1 | plasma FIXa (activated purified normal human plasma Factor IX) (from UniProt P00740 47-191; P00740 227-461) (enzyme) | – | – | – | Kd [1]: 1.01 nM
2 | R338A-FIXa (activated Factor IX with alanine at position 338) | 3.39±0.12 | 3.38±0.19 | 3.56±0.15 nM FXa/min | –
3 | recombinant wt-FIXa (activated recombinant wild type Factor IX) | 1.27±0.12 | 1.35±0.15 | – | –
4 | recombinant wt-FIXa (activated recombinant wild type Factor IX) (from UniProt P00740 47-191; P00740 227-461) (enzyme) | – | – | – | Kd [3]: 0.38 nM; Kd [4]: 0.85 nM
5 | plasma FIXa (activated purified normal human plasma Factor IX) | – | – | 1.30 ± 0.10 nM/min | –
